# From US8652467B2, “Dek protein compositions and methods of using the same” (The Regents of the University of Michigan, priority 2005, dated 2014)
# Entries after “also recorded” stand apart in the source; their conditions may differ.
# Experiments:
# [1] = tested on: neutrophils; test: Neutrophil migration into the peritoneum after intraperitoneal injection; assay type: in vivo, C57BL6 mice; conditions: 50 μg intraperitoneal, 8 h following injection, vs GLI-2 and PBS controls
# Description: (A). Purified neutrophils were placed in the upper chambers of a 24-well chemotaxis microchamber plate with pore size of 3 μM or 5 μM. Lower chambers contained RPMI medium with various concentrations of recombinant DEK, as indicated. The bar labeled “control” contained only media in the lower chamber. The bar labeled “DEK up” had DEK in the upper chamber and media in the lower chamber. […] (B). Groups of mice received intraperitoneal injections of either PBS or 50 μg of either LPS, recombinant DEK, or a recombinant protein control prepared in parallel to DEK in baculovirus (an isoform of human GLI-2). Twenty mice were tested in each of the four groups. Half of the mice in each group were sacrificed after 4 hours (white bars), and the other half at 8 hours (black bars) after intraperitoneal injection, and then subjected to peritoneal lavage. The bars represent the average number of neutrophils migrating into the peritoneum of each group of mice.
# In order to confirm that DEK is a chemoattractant, an in vivo murine model was used. Four groups of twenty 4-6 week old male C57BL6 mice were injected intraperitoneally with 50 μg of DEK, 50 μg of a recombinant control protein also prepared in baculovirus (GLI-2) (See, e.g., Smith et al., J Virol 75, 2301-13 (2001)), 50 μg of LPS, or PBS alone.
# [2] = tested on: circular SV-40 DNA; test: Topology assay with His-DEK and GST-ALY; assay type: biochemical; conditions: in the presence of 1 U topoisomerase I
# Description: 10 ng (0.003 pmol) of circular SV-40 DNA was incubated with 2, 4 or 8 pmol of HIS-DEK (DEK) or GST-ALY (ALY) or either 2 or 4 pmol HIS-DEK and 2, 4 or 8 pmol GST-ALY in the presence of 1 U topoisomerase I. As a control for the functionality of topoisomerase I, SV-40 DNA was incubated either with or without topo I in the absence of GST-ALY and DEK. After 1 h at 37° C., the samples were treated with Proteinase K, and the DNA was purified and analyzed by agarose gel electrophoresis (0.8% at 2V/cm) and SybrGold staining.
molecule,measurement,setting,value
"DEK: full-length recombinant DEK protein produced in baculovirus (protein, UniProt P35659 1-375, looked up, full-length, full-length recombinant DEK protein produced in baculovirus) MSASAPAAEGEGTPTQPASEKEPEMPGPREESEEEEDEDDEEEEEEEKEKSLIVEGKREKKKVERLTMQVSSLQREPFTIAQGKGQKLCEIERIHFFLSKKKTDELRNLHKLLYNRPGTVSSLKKNVGQFSGFPFEKGSVQYKKKEEMLKKFRNAMLKSICEVLDLERSGVNSELVKRILNFLMHPKPSGKPLPKSKKTCSKGSKKERNSSGMARKAKRTKCPEILSDESSSDEDEKKNKEESSDDEDKESEEEPPKKTAKREKPKQKATSKSKKSVKSANVKKADSSTTKKNQNSSKKESESEDSSDDEPLIKKLKKPPTDEELKETIKKLLASANLEEVTMKQICKKVYENYPTYDLTERKDFIKTTVKELIS",neutrophil migration into the peritoneum,[1],significantly increased the infiltration of neutrophils; also recorded: significantly induces neutrophil migration
same,induction of DNA supercoiling,[2],induced supercoiling
